Consider 41 molecules from patent US20250368745A1 (published 2025).

The labels stand for the following.
T1: human IL-18BP (human, UniProt O95998 31-194)
T1 construct: UniProt printed as 095998; also called hIL-18BP
T1 sequence: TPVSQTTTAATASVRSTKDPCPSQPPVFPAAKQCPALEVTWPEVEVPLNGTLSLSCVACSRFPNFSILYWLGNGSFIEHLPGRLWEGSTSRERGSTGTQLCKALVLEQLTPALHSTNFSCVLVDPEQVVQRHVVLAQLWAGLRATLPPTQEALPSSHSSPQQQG

T2: cynomolgus IL-18BP (cynomolgus monkey)
T2 construct: also called cyno IL-18BP; cyIL-18BP
T2 chain: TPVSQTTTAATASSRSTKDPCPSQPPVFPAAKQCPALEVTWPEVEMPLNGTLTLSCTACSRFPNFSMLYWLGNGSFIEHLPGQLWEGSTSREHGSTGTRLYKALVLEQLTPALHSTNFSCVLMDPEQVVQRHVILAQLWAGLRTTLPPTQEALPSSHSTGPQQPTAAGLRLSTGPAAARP

T3: human IL-18BP (human, UniProt O95998 31-194)
T3 construct: also called hIL-18BP; Mature Human Isoform A
T3 sequence: T1 sequence

B1: SA301a HC-H52S (antibody, name in Kabat numbering, V domains shown)
VH: QVQLQESGPGLVKPSQTLSLTCTVSGYSITSDYNSHWIRQPPGKGLEWIGYISYSGSTNYNPSLKSRVTISRDTSKNQFSLKLSSVTAADTAVYYCARNYGSIYVNYFDYWGQGTLVTVSS
VL: EIVLTQSPATLSLSPGERATLSCSASSSVSYMYWYQQKPGQAPRPLIYRTSNLASGIPARFSGSGSGTDFTLTISSLEPEDFAVYYCQQYHSYPTFGGGTKVEIK
notes: IgG1 kappa
B2: SA301a HC-H52R (antibody, name in Kabat numbering, V domains shown)
VH: B1 VH with S53R
VL: B1 VL
notes: IgG1 kappa
B3: SA301a HC-H52G (antibody, name in Kabat numbering, V domains shown)
VH: B1 VH with S53G
VL: B1 VL
notes: IgG1 kappa
B4: SA301a HC-H52I (antibody, name in Kabat numbering, V domains shown)
VH: B1 VH with S53I
VL: B1 VL
notes: IgG1 kappa
B5: SA301a HC-H52D (antibody, name in Kabat numbering, V domains shown)
VH: B1 VH with S53D
VL: B1 VL
notes: IgG1 kappa
B6: SA301a HC-H52N (antibody, name in Kabat numbering, V domains shown)
VH: B1 VH with S53N
VL: B1 VL
notes: IgG1 kappa
B7: SA301a light chain variant S30D (antibody, V domains shown)
VH: B1 VH with S53H
VL: B1 VL with S30D
B8: SA301a light chain variant S27Q (antibody, V domains shown)
VH: B1 VH with S53H
VL: B1 VL with S27Q
B9: SA301a light chain variant V29A (antibody, V domains shown)
VH: B1 VH with S53H
VL: B1 VL with V29A
B10: SA301a light chain variant V29M (antibody, V domains shown)
VH: B1 VH with S53H
VL: B1 VL with V29M
B11: SA301a light chain variant S27G (antibody, V domains shown)
VH: B1 VH with S53H
VL: B1 VL with S27G
B12: SA301a light chain variant S28Y (antibody, V domains shown)
VH: B1 VH with S53H
VL: B1 VL with S28Y
B13: SA301a light chain variant V29Y (antibody, V domains shown)
VH: B1 VH with S53H
VL: B1 VL with V29Y
B14: SA301a light chain variant S28K (antibody, V domains shown)
VH: B1 VH with S53H
VL: B1 VL with S28K
B15: SA301a light chain variant S28M (antibody, V domains shown)
VH: B1 VH with S53H
VL: B1 VL with S28M
B16: SA301a light chain variant V29L (antibody, V domains shown)
VH: B1 VH with S53H
VL: B1 VL with V29L
B17: SA301a light chain variant S27I (antibody, V domains shown)
VH: B1 VH with S53H
VL: B1 VL with S27I
B18: SA301a light chain variant S27K (antibody, V domains shown)
VH: B1 VH with S53H
VL: B1 VL with S27K
B19: SA301a light chain variant V29D (antibody, V domains shown)
VH: B1 VH with S53H
VL: B1 VL with V29D
B20: SA301a light chain variant S27D (antibody, V domains shown)
VH: B1 VH with S53H
VL: B1 VL with S27D
B21: SA301a light chain variant V29R (antibody, V domains shown)
VH: B1 VH with S53H
VL: B1 VL with V29R
B22: SA301a light chain variant S27R (antibody, V domains shown)
VH: B1 VH with S53H
VL: B1 VL with S27R
B23: SA301a light chain variant S27A (antibody, V domains shown)
VH: B1 VH with S53H
VL: B1 VL with S27A
B24: SA301a light chain variant S27L (antibody, V domains shown)
VH: B1 VH with S53H
VL: B1 VL with S27L
B25: SA301a light chain variant S27H (antibody, V domains shown)
VH: B1 VH with S53H
VL: B1 VL with S27H
B26: SA301a light chain variant S28G (antibody, V domains shown)
VH: B1 VH with S53H
VL: B1 VL with S28G
B27: SA301a light chain variant S27Y (antibody, V domains shown)
VH: B1 VH with S53H
VL: B1 VL with S27Y
B28: SA301a light chain variant S28P (antibody, V domains shown)
VH: B1 VH with S53H
VL: B1 VL with S28P
B29: SA301a light chain variant V29G (antibody, V domains shown)
VH: B1 VH with S53H
VL: B1 VL with V29G
B30: SA301a light chain variant S30F (antibody, V domains shown)
VH: B1 VH with S53H
VL: B1 VL with S30F
B31: SA301a light chain variant S28N (antibody, V domains shown)
VH: B1 VH with S53H
VL: B1 VL with S28N
B32: SA301a light chain variant V29H (antibody, V domains shown)
VH: B1 VH with S53H
VL: B1 VL with V29H
B33: SA301a light chain variant S27P (antibody, V domains shown)
VH: B1 VH with S53H
VL: B1 VL with S27P
B34: SA301a light chain variant V29N (antibody, V domains shown)
VH: B1 VH with S53H
VL: B1 VL with V29N
B35: SA301a light chain variant S28E (antibody, V domains shown)
VH: B1 VH with S53H
VL: B1 VL with S28E
B36: SA301a light chain variant S28F (antibody, V domains shown)
VH: B1 VH with S53H
VL: B1 VL with S28F
B37: SA301a light chain variant S28H (antibody, V domains shown)
VH: B1 VH with S53H
VL: B1 VL with S28H
B38: SA301a light chain variant S28T (antibody, V domains shown)
VH: B1 VH with S53H
VL: B1 VL with S28T
B39: SA301a light chain variant S28Q (antibody, V domains shown)
VH: B1 VH with S53H
VL: B1 VL with S28Q
B40: SA301a light chain variant S27M (antibody, V domains shown)
VH: B1 VH with S53H
VL: B1 VL with S27M
B41: SA301a light chain variant S28D (antibody, V domains shown)
VH: B1 VH with S53H
VL: B1 VL with S28D

Positions count from the first letter of the chain named. Numbers in names are those of the source.

One assay addresses T1, human IL-18BP. Kind of assay: BLI, apparent KD.
Turning to B1, the Kd amounted to 0.63 nM.

Regarding B2, the Kd came out at 1.36 nM.

On to B3, for which the Kd came out at 1.68 nM.

For the molecule B4, the Kd was 0.53 nM.

Take B5: the Kd came out at 0.35 nM.

With B6, the Kd was found to be 1.04 nM.

Another assay deals with T2, cynomolgus IL-18BP. The experiment in a line: BLI, apparent KD.
Regarding B1, the Kd stood at 1.16 nM.

B2: the Kd came to 1.55 nM.

Take B3: the Kd was 1.66 nM.

In the case of B4, the Kd worked out at 1.72 nM.

On to B5, for which the Kd came to 0.91 nM.

B6: the Kd was 2.83 nM.

A further assay concerns the target T3, human IL-18BP. The experiment in a line: BLI, apparent KD, one conc.
As to B7, the Kd came out at 0.31 nM.

Take B8: the Kd was determined as 0.43 nM.

Turning to B9, the Kd stood at 0.4 nM.

Regarding B10, the Kd turned out to be 0.35 nM.

Turning to B11, the Kd is 0.49 nM.

Turning to B12, the Kd came out at 0.47 nM.

For B13, the Kd turned out to be 0.4 nM.

For B14, the Kd was determined as 0.51 nM.

For the molecule B15, the Kd worked out at 0.51 nM.

Regarding B16, the Kd was 0.33 nM.

With B17, the Kd worked out at 0.5 nM.

Consider B18, for which the Kd was determined as 0.52 nM.

For the molecule B19, the Kd was found to be 0.43 nM.

With B20, the Kd was found to be 0.43 nM.

For B21, the Kd was 0.38 nM.

Take B22: the Kd came to 0.45 nM.

As to B23, the Kd was 0.47 nM.

On to B24, for which the Kd was found to be 0.44 nM.

As for B25, the Kd was determined as 0.53 nM.

As for B26, the Kd amounted to 0.51 nM.

As to B27, the Kd stood at 0.37 nM.

For the molecule B28, the Kd was 0.39 nM.

As for B29, the Kd was found to be 0.41 nM.

Regarding B30, the Kd was 0.35 nM.

In the case of B31, the Kd came to 0.45 nM.

Regarding B32, the Kd came out at 0.47 nM.

Take B33: the Kd was 0.45 nM.

With B34, the Kd stood at 0.44 nM.

For B35, the Kd was found to be 0.39 nM.

For the molecule B36, the Kd is 0.46 nM.

For the molecule B37, the Kd worked out at 0.44 nM.

Take B38: the Kd was found to be 0.43 nM.

With B39, the Kd amounted to 0.45 nM.

Turning to B40, the Kd was 0.63 nM.

As to B41, the Kd was 0.42 nM.
